Test [1] has as its target T1, human CXCR4 (human, UniProt P61073 1-352). Kind of test: cell-based or functional assay.
For test [2], the target named is T1, human CXCR4. Nature of the test: cell-based or functional assay. The source holds these as a separate data set.
For test [3], the target named is T1, human CXCR4. Nature of the test: inhibition of 12G5 (competitor, 10 nM PE-labelled) binding, Jurkat cells.
Test [4] addresses T1, human CXCR4. Kind of test: inhibition of 12G5 (competitor, 10 nM PE-labelled) binding, SUPT-1 cells.
The target in test [5] is T1, human CXCR4. Kind of test: inhibition of 12G5 (competitor, 10 nM PE-labelled) binding, THP-1 cells.
In test [6] the target is T1, human CXCR4. Nature of the test: inhibition of 12G5 binding, Jurkat cells.
In test [7] the target is T1, human CXCR4. Nature of the test: SDF-1^AF647 displacement, SUPT-1 cells, flow cytometry, n = 3. (In general: A flow cytometer gives signals particle by particle.)

What is called IC50 is the concentration that gives 50% inhibition. A low value points to greater potency in that assay.

T1 sequence (P61073 whole entry): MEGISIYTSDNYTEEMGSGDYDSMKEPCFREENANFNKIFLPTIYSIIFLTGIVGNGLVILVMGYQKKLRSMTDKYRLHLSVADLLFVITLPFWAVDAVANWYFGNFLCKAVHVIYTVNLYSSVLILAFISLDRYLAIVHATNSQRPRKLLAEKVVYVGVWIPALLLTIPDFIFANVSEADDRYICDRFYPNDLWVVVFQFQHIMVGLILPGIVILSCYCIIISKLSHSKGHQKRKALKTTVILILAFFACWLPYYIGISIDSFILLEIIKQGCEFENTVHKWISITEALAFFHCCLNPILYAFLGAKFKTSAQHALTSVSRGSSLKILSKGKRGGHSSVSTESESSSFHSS

B1: 281F12-35GS-03F11 (bispecific antibody)
chain: EVQLVESGGGLVQAGDSLRLSCAASGRAFSRYAMGWFRQAPGKEREFVAAIGWGPSKTNYADSVKGRFTISRDNAKNTVYLQMNTLKPEDTAVYSCAAKFVNTDSTWSRSEMYTYWGQGTQVTVSSGGGGSGGGGSGGGGSGGGGSGGGGSGGGGSGGGGSEVQLVESGGGSVQPGGSLTLSCGTSGRTFNVMGWFRQAPGKEREFVAAVRWSSTGIYYTQYADSVKSRFTISRDNAKNTVYLEMNSLKPEDTAVYYCAADTYNSNPARWDGYDFRGQGTQVTVSS
notes: Bispecific Nanobody construct, CXCR4 arm N-terminal; also called 281F12-35GS-3F11; CXCR4-35GS-CD4; not shown: C-terminal c-myc-His6 tag (E. coli) or FLAG3-His6 tag (Pichia)
Consider B1, for which the “IC50, SDF-1 induced Ca2+ signaling, U87-CD4-CXCR4 cells” value with human CXCR4 [1] stood at 5.31 nM. The “IC50, inhibition of SDF-1a-mediated chemotaxis, Jurkat E6-1 cells” value in the test with human CXCR4 [2] came to 110 nM. Besides, in the test with human CXCR4 [2], the “IC50, inhibition of SDF-1a-mediated chemotaxis, MOLM-13 cells” value is 0.59 nM. In the test with human CXCR4 [2], the “Ratio to 281F12 (fold increase in potency), chemotaxis, Jurkat E6-1 cells” value turned out to be 0.8 fold. Also, the “Ratio to 281F12 (fold increase in potency), chemotaxis, MOLM-13 cells” value with human CXCR4 [2] was determined as 146 fold. In addition, the IC50 was determined as 29.3 nM in the test with human CXCR4 [3], 1.5 nM with human CXCR4 [4], 2.48 nM with human CXCR4 [5] and 0.96 nM with human CXCR4 [7]. Also, in the test with human CXCR4 [6], the “fold loss of potency compared to monovalent CXCR4 Nanobody construct” value is 2 fold.

For the origin of these results see patent US20180086837A1 (Ablynx, published 2018).
